The results in this text go back to US20220364173.

The data set has as its target T1, Bst 2.0 DNA polymerase (UniProt P52026).
T1 sequence: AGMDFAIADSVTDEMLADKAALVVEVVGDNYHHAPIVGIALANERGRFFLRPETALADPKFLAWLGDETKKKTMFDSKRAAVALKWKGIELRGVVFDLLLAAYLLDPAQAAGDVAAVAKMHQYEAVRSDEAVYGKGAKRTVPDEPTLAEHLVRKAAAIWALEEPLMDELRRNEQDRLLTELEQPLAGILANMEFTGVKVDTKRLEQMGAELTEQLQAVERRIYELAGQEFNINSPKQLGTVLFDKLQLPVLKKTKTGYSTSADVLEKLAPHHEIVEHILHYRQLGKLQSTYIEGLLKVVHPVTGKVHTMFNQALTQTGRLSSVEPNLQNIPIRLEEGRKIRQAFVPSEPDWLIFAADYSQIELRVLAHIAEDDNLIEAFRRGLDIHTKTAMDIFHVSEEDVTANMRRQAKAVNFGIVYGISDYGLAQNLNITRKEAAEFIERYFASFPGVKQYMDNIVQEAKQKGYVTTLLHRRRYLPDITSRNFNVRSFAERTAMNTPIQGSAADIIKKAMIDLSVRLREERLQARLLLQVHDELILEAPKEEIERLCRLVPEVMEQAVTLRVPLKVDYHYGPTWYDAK
The following applies: N6-allyl-N6-methyladenosine at centre of NNANN, I2-cyclized; mutation rate on all DRACH motifs during reverse transcription; MgSO4, PEG 4000, 37 C.

As to UCGACGUNNANNGGCAUUGCU [NNam6ANN probe], the activity is above 25%.
